Test results as given in patent US20250152742A1, “COMPOSITIONS AND METHODS FOR NEUROLOGICAL DISEASES” (Trames Bio, Inc., priority 2022, published 2025).
Residue numbers refer to the chain shown, from its start. Names may count otherwise.

Test system: engineered chimeric receptor SEQ ID NO: 33 and its mutants (human α7-nAChR ligand binding domain / human GlyRα1 ion pore domain) in Lenti-X 293T cells
Experiment: YFP fluorescence quenching anion reporter plate reader assay (percent quench, EC50)
Format: cell-based
Settings: for YFP fluorescence quenching using CNL001 (percent quench): receptor named in row; for YFP fluorescence quenching using Facinicline, 30 nM fac: ligand Facinicline 30 nM; for YFP fluorescence quenching using Facinicline, 300 nM fac: ligand Facinicline 300 nM; for YFP fluorescence quenching using Facinicline, 30 uM fac: ligand Facinicline 30 uM; for YFP fluorescence quenching using TC-6987, 1 uM tc6987: ligand TC-6987 1 uM; for YFP fluorescence quenching using TC-6987, 10 uM tc6987: ligand TC-6987 10 uM; for YFP fluorescence quenching using TC-6987, 500 uM tc6987: ligand TC-6987 500 uM; for YFP fluorescence quenching using Varenicline, 3 nM var: ligand Varenicline 3 nM; for YFP fluorescence quenching using Varenicline, 30 nM var: ligand Varenicline 30 nM; for YFP fluorescence quenching using Varenicline, 300 nM var: ligand Varenicline 300 nM; for YFP fluorescence quenching using Varenicline, 500 nM var: ligand Varenicline 500 nM; for YFP fluorescence quenching using Varenicline, 1 uM var: ligand Varenicline 1 uM
How it was run: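 Percent quench compares mean YFP signal over the final 10 s with the 15 s baseline before ligand, added in iodide-containing extracellular solution (pH 7.2). Cells were LX293T carrying a YFP anion reporter, transiently transfected with the channel construct; plates were preincubated 30 min at 37 °C.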

[1] = 1 nM CNL001, first column so headed
[2] = 1 nM CNL001, second column so headed
[3] = 3 nM brd (TC-5619/Bradanicline)
[4] = 10 nM CNL001, first column so headed
[5] = 10 nM CNL001, second column so headed
[6] = 30 nM brd (TC-5619/Bradanicline)
[7] = 50 nM CNL001, first column so headed
[8] = 50 nM CNL001, second column so headed
[9] = 100 nM CNL001, first column so headed
[10] = 100 nM CNL001, second column so headed
[11] = 300 nM brd (TC-5619/Bradanicline)
[12] = 1 uM CNL001, first column so headed
[13] = 1 uM CNL001, second column so headed

B1: CODA339: engineered receptor: L131D in SEQ ID NO: 33 (protein)
chain: MRCSPGGVWLALAASLLHVSLQGEFQRKLYKELVKNYNPLERPVANDSQPLTVYFSLSLLQIMDVDEKNQVLTTNIWLQMSWTDHYLQWNVSEYPGVKTVRFPDGQIWKPDILLYNSADERFDATFHTNVDVNSSGHCQYLPPGIFKSSCPMDLKNFPMDVQTCKLKFGSWSYGGWSLDLQMQEADISGYIPNGEWDLVGIPGKRSERFYECCKEPYPDVTFTVTMRRRMGYYLIQMYIPSLLIVILSWISFWINMDAAPARVGLGITTVLTMTTQSSGSRASLPKVSYVKAIDIWMAVCLLFVFSALLEYAAVNFVSRQHKELLRFRRKRRHHKSPMLNLFQEDEAGEGRFNFSAYGMGPACLQAKDGISVKGANNSNTTNPPPAPSKSPEEMRKLFIQRAKKIDKISRIGFPMAFLIFNMFYWIIYKIVRREDVHNQ
modifications: synthetic sequence of chimeric LGIC
YFP fluorescence quenching using CNL001 (percent quench) [1]: 73.711%
YFP fluorescence quenching using CNL001 (percent quench) [2]: 76.44%
YFP fluorescence quenching using TC-5619/Bradanicline (percent quench) (1 nM brd (TC-5619/Bradanicline)): 4.12%
YFP fluorescence quenching using TC-5619/Bradanicline (percent quench) [3]: 19.15%
YFP fluorescence quenching using CNL001 (percent quench) [4]: 77.049%
YFP fluorescence quenching using CNL001 (percent quench) [5]: 77.76%
YFP fluorescence quenching using TC-5619/Bradanicline (percent quench) (10 nM brd (TC-5619/Bradanicline)): 68.98%
YFP fluorescence quenching using TC-6683 (percent quench) (30 nM TC-6683): −18.32%
YFP fluorescence quenching using TC-5619/Bradanicline (percent quench) [6]: 77.29%
YFP fluorescence quenching using CNL001 (percent quench) [7]: 77.882%
YFP fluorescence quenching using CNL001 (percent quench) [8]: 78.708%
YFP fluorescence quenching using ABT-126 (percent quench) (50 nM abt (ABT-126)): −16.65%
YFP fluorescence quenching using CNL001 (percent quench) [9]: 79.567%
YFP fluorescence quenching using CNL001 (percent quench) [10]: 79.273%
YFP fluorescence quenching (percent quench) (100 nM CNL002): 12.83%
YFP fluorescence quenching using ABT-126 (percent quench) (100 nM abt (ABT-126)): −12.3%
YFP fluorescence quenching using AZD-0328 (percent quench) (100 nM azd0328): 62.87%
YFP fluorescence quenching using TC-5619/Bradanicline (percent quench) (100 nM brd (TC-5619/Bradanicline)): 81.41%
YFP fluorescence quenching using TC-6683 (percent quench) (300 nM TC-6683): −17.25%
YFP fluorescence quenching using ABT-126 (percent quench) (300 nM abt (ABT-126)): 18.5%
YFP fluorescence quenching using AZD-0328 (percent quench) (300 nM azd0328): 77.03%
YFP fluorescence quenching using TC-5619/Bradanicline (percent quench) [11]: 75.79%
YFP fluorescence quenching using CNL001 (percent quench) [12]: 79.992%
YFP fluorescence quenching using CNL001 (percent quench) [13]: 79.927%
YFP fluorescence quenching (percent quench) (1 uM CNL002): 77.73%
YFP fluorescence quenching using ABT-126 (percent quench) (1 uM abt (ABT-126)): 59.09%
YFP fluorescence quenching using TC-5619/Bradanicline (percent quench) (1 uM brd (TC-5619/Bradanicline)): 82.26%
YFP fluorescence quenching using TC-6683 (percent quench) (3 uM TC-6683): −10%
YFP fluorescence quenching (percent quench) (10 uM ach (acetylcholine)): 4.56%
YFP fluorescence quenching (percent quench) (30 uM CNL002): 80.58%
YFP fluorescence quenching using TC-6683 (percent quench) (30 uM TC-6683): −8.51%
YFP fluorescence quenching using AZD-0328 (percent quench) (30 uM azd0328): 78.63%
YFP fluorescence quenching using TC-6683 (percent quench) (100 uM TC-6683): −9.77%
YFP fluorescence quenching (percent quench) (100 uM ach (acetylcholine)): 10.19%
YFP fluorescence quenching (percent quench) (1 mM ach (acetylcholine)): 77.34%
YFP fluorescence quenching (percent quench) (3 mM ach (acetylcholine)): 77.79%
YFP fluorescence quenching using Facinicline, 30 nM fac: 12.67
YFP fluorescence quenching using Facinicline, 300 nM fac: 80.4
YFP fluorescence quenching using Facinicline, 10 uM fac (ligand Facinicline 10 uM): 82.18
YFP fluorescence quenching using Facinicline, 30 uM fac: 82.14
YFP fluorescence quenching using TC-6987, 1 uM tc6987: 50
YFP fluorescence quenching using TC-6987, 3 uM tc6987 (ligand TC-6987 3 uM): 80.39
YFP fluorescence quenching using TC-6987, 5 uM tc6987 (ligand TC-6987 5 uM): 79.93
YFP fluorescence quenching using TC-6987, 10 uM tc6987: 80.99
YFP fluorescence quenching using TC-6987, 30 uM tc6987 (ligand TC-6987 30 uM): 83.11
YFP fluorescence quenching using TC-6987, 50 uM tc6987 (ligand TC-6987 50 uM): 83.18
YFP fluorescence quenching using TC-6987, 100 uM tc6987 (ligand TC-6987 100 uM): 82.16
YFP fluorescence quenching using TC-6987, 300 uM tc6987 (ligand TC-6987 300 uM): 64.58
YFP fluorescence quenching using TC-6987, 500 uM tc6987: 76.77
YFP fluorescence quenching using Varenicline, 3 nM var (first column): −0.902
YFP fluorescence quenching using Varenicline, 3 nM var (second column): −7.62
YFP fluorescence quenching using Varenicline, 30 nM var (first column): −6.009
YFP fluorescence quenching using Varenicline, 30 nM var (second column): −3.447
YFP fluorescence quenching using Varenicline, 300 nM var (first column): 49.328
YFP fluorescence quenching using Varenicline, 300 nM var (second column): 47.685
YFP fluorescence quenching using Varenicline, 500 nM var (first column): 66.7
YFP fluorescence quenching using Varenicline, 500 nM var (second column): 64.798
YFP fluorescence quenching using Varenicline, 1 uM var (first column): 70.85
YFP fluorescence quenching using Varenicline, 1 uM var (second column): 69.038

B2: CODA340: engineered receptor: L131E in SEQ ID NO: 33 (protein)
chain: B1 chain with D131E
modifications: synthetic sequence of chimeric LGIC
YFP fluorescence quenching using CNL001 (percent quench) [1]: 76.413%
YFP fluorescence quenching using CNL001 (percent quench) [2]: 77.144%
YFP fluorescence quenching using TC-5619/Bradanicline (percent quench) [3]: 68.57%
YFP fluorescence quenching using CNL001 (percent quench) [4]: 78.258%
YFP fluorescence quenching using CNL001 (percent quench) [5]: 78.763%
YFP fluorescence quenching using TC-6683 (percent quench) (30 nM TC-6683): 30.14%
YFP fluorescence quenching using TC-5619/Bradanicline (percent quench) [6]: 76.85%
YFP fluorescence quenching using CNL001 (percent quench) [7]: 79.757%
YFP fluorescence quenching using CNL001 (percent quench) [8]: 79.327%
YFP fluorescence quenching using ABT-126 (percent quench) (50 nM abt (ABT-126)): 2.2%
YFP fluorescence quenching using CNL001 (percent quench) [9]: 79.011%
YFP fluorescence quenching using CNL001 (percent quench) [10]: 79.948%
YFP fluorescence quenching (percent quench) (100 nM CNL002): 49.97%
YFP fluorescence quenching using ABT-126 (percent quench) (100 nM abt (ABT-126)): 25.39%
YFP fluorescence quenching using AZD-0328 (percent quench) (100 nM azd0328): 82.48%
YFP fluorescence quenching using TC-6683 (percent quench) (300 nM TC-6683): 33.02%
YFP fluorescence quenching using ABT-126 (percent quench) (300 nM abt (ABT-126)): 36.48%
YFP fluorescence quenching using AZD-0328 (percent quench) (300 nM azd0328): 82.04%
YFP fluorescence quenching using TC-5619/Bradanicline (percent quench) [11]: 78.49%
YFP fluorescence quenching using CNL001 (percent quench) [12]: 79.855%
YFP fluorescence quenching using CNL001 (percent quench) [13]: 80.618%
YFP fluorescence quenching (percent quench) (1 uM CNL002): 67.8%
YFP fluorescence quenching using ABT-126 (percent quench) (1 uM abt (ABT-126)): 50.76%
YFP fluorescence quenching using TC-6683 (percent quench) (3 uM TC-6683): 41.68%
YFP fluorescence quenching (percent quench) (10 uM ach (acetylcholine)): 15.29%
YFP fluorescence quenching (percent quench) (30 uM CNL002): 64.58%
YFP fluorescence quenching using TC-6683 (percent quench) (30 uM TC-6683): 35.75%
YFP fluorescence quenching (percent quench) (30 uM ach (acetylcholine)): 66.56%
YFP fluorescence quenching using AZD-0328 (percent quench) (30 uM azd0328): 81.8%
YFP fluorescence quenching using TC-6683 (percent quench) (100 uM TC-6683): 24.32%
YFP fluorescence quenching (percent quench) (100 uM ach (acetylcholine)): 81.31%
YFP fluorescence quenching (percent quench) (1 mM ach (acetylcholine)): 80.77%
YFP fluorescence quenching (percent quench) (3 mM ach (acetylcholine)): 77.31%
YFP fluorescence quenching using Facinicline, 30 nM fac: 82.51
YFP fluorescence quenching using Facinicline, 100 nM fac (ligand Facinicline 100 nM): 83.6
YFP fluorescence quenching using Facinicline, 300 nM fac: 82.92
YFP fluorescence quenching using Facinicline, 30 uM fac: 82.68
YFP fluorescence quenching using TC-6987, 1 uM tc6987: 80.13
YFP fluorescence quenching using TC-6987, 10 uM tc6987: 81.29
YFP fluorescence quenching using TC-6987, 500 uM tc6987: 79.6
YFP fluorescence quenching using Varenicline, 3 nM var (first column): −4.061
YFP fluorescence quenching using Varenicline, 3 nM var (second column): −0.568
YFP fluorescence quenching using Varenicline, 30 nM var (first column): 62.964
YFP fluorescence quenching using Varenicline, 30 nM var (second column): 63.631
YFP fluorescence quenching using Varenicline, 300 nM var (first column): 74.912
YFP fluorescence quenching using Varenicline, 300 nM var (second column): 75.084
YFP fluorescence quenching using Varenicline, 500 nM var (first column): 76.346
YFP fluorescence quenching using Varenicline, 500 nM var (second column): 75.876
YFP fluorescence quenching using Varenicline, 1 uM var (first column): 75.805
YFP fluorescence quenching using Varenicline, 1 uM var (second column): 74.856
